Measured values reported in FireProtDB.

B1: Ribonuclease, P00648 (parent)
chain: MMKMEGIALKKRLSWISVCLLVLVSAAGMLFSTAAKTETSSHKAHTEAQVINTFDGVADYLQTYHKLPDNYITKSEAQALGWVASKGNLADVAPGKSIGGDIFSNREGKLPGKSGRTWREADINYTSGFRNSDRILYSSDWLIYKTTDHYQTFTKIR
B2: E188K|A142V|H125Y, Q88HV5 (parent)
chain: MPFQQGLLATPVPAHARHLFFTLQSPEALPAALDALLPQVDGKQLLLGVGAPLAKALGREIPGLRPFPLLDAAVENPSTQHALWLWLRGDERGDLLLRTQALEQALAPALSLADSVDGFLHRGGHDLTGYEDGTENPTDEEAVQAAIAADGSSFAAFQLWKHDLQYFKSLPQADQDNIIGRRLSDNEELDDAPASAHVKRTAQESFEPEAFMVRRSVSWADQRGAGLAFVALGKSFEAFEVQLRRMSGLEDGIIDGLYRFSRPLTGGYYWCPPMSETGVDLSPLLRA
B3: SNARE-associated protein Snapin, O95295 (parent)
chain: MAGAGSAAVSGAGTPVAGPTGRDLFAEGLLEFLRPAVQQLDSHVHAVRESQVELREQIDNLATELCRINEDQKVALDLDPYVKKLLNARRRVVLVNNILQNAQERLRRLNHSVAKETARRRAMLDSGIYPPGSPGK
B4: Glutathione S-transferase Mu 1, P04905 (parent)
chain: MPMILGYWNVRGLTHPIRLLLEYTDSSYEEKRYAMGDAPDYDRSQWLNEKFKLGLDFPNLPYLIDGSRKITQSNAIMRYLARKHHLCGETEEERIRADIVENQVMDNRMQLIMLCYNPDFEKQKPEFLKTIPEKMKLYSEFLGKRPWFAGDKVTYVDFLAYDILDQYHIFEPKCLDAFPNLKDFLARFEGLKKISAYMKSSRYLSTPIFSKLAQWSNK

Variants of: B1
Settings: Bacillus amyloliquefaciens; pH 6.3; 25 °C; Urea; Fluorescence; MES 1.00 M; NaCl 613 mM; reversible: yes; structure 1BNI; whole UniProt chain shown

Variant	ddG of mutation (higher = less stable) [kcal/mol]
Y60A	3.71
T63S Y64A	2.39

Same assay, conditions: Bacillus amyloliquefaciens; pH 6.3; 25 °C; Thermal; Fluorescence; MES 50 mM; structure 1BNI; whole UniProt chain shown

Variant	ddG of mutation (higher = less stable) [kcal/mol]	unfolding free energy [kcal/mol]
D122N	5	5.2

Same assay, conditions: Bacillus amyloliquefaciens; pH 6.3; 25 °C; Urea; Fluorescence; MES 50 mM; reversible: yes; structure 1BNI; whole UniProt chain shown

Variant	ddG of mutation (higher = less stable) [kcal/mol]
T63S	1.87
T73A	2.14
H65Q	1.6

Same assay, conditions: Bacillus amyloliquefaciens; pH 6.15; 25 °C; Urea; Fluorescence; MES 19.3 mM; reversible: yes; structure 1BNI; whole UniProt chain shown

Variant	ddG of mutation (higher = less stable) [kcal/mol]	denaturant midpoint (higher = more stable) [M]	unfolding free energy [kcal/mol]
F54L	4.1	2.42	6.4

Same assay, conditions: Bacillus amyloliquefaciens; pH 2.7; Thermal; CD; glycine-HCl 20 mM; KCl 200 mM; reversible: yes; structure 1BNI; whole UniProt chain shown

Variant	Tm [°C]
I51A I98V	25.7

Same assay, conditions: Bacillus amyloliquefaciens; pH 2.7; Thermal; DSC; glycine-HCl 20 mM; KCl 200 mM; reversible: yes; structure 1BNI; whole UniProt chain shown

Variant	Tm [°C]
I51A I98V	25.4

Same assay, conditions: Bacillus amyloliquefaciens; pH 6.3; 25 °C; Urea; Fluorescence; MES 1 M; structure 1BNI; whole UniProt chain shown

Variant	ddG of mutation (higher = less stable) [kcal/mol]	unfolding free energy [kcal/mol]
H65A	2.15	6.75
H65G	0.89	8.01

Same assay, conditions: Bacillus amyloliquefaciens; pH 2.7; Thermal; DSC; glycine-HCl 20 mM; reversible: yes; structure 1BNI; whole UniProt chain shown

Variant	Tm [°C]
S132C H149C	47.4

Same assay, conditions: Bacillus amyloliquefaciens; pH 6.3; 25 °C; Urea; Fluorescence; MES 10 mM; reversible: yes; structure 1BNI; whole UniProt chain shown

Variant	ddG of mutation (higher = less stable) [kcal/mol]	denaturant m value [kcal/mol/M]	denaturant midpoint (higher = more stable) [M]	unfolding free energy [kcal/mol]
S75E	-0.61	1.99	4.74	9.44

Same assay, conditions: Bacillus amyloliquefaciens; pH 6.3; 25 °C; Urea; Fluorescence; MES 50 mM; structure 1BNI; whole UniProt chain shown

Variant	ddG of mutation (higher = less stable) [kcal/mol]
E120F	2.1
E120Q	2.7
E120W	2.2

Variants of: B2
Settings: Pseudomonas putida (strain ATCC 47054 / DSM 6125 / CFBP 8728 / NCIMB 11950 / KT2440); pH 7.6; Fluorescence spectroscopy; whole UniProt chain shown

Variant	Tm [°C]
E188K A142V H125Y	59
E188K H125Y	61

Variants of: B3
Settings: Homo sapiens; pH 7; Thermal; absorbance; Phosphate buffer; transition: 2; reversible: yes; whole UniProt chain shown

Variant	Tm [°C]	change of melting temperature, mutant - wild type (higher = more stable) [°C]
C66S	72.4	1.4

Same assay, conditions: Homo sapiens; pH 7.4; Thermal; CD; Tris 50 mM; whole UniProt chain shown

Variant	Tm [°C]	change of melting temperature, mutant - wild type (higher = more stable) [°C]
C66S	60.1	2.2

Variants of: B4
Settings: Rattus norvegicus; pH 6.5; 20 °C; Urea; CD; NaH2PO4 20 mM; NaCl 0.1 M; reversible: Yes; structure 1GSB; whole UniProt chain shown

Variant	denaturant m value [kcal/mol/M]	denaturant midpoint (higher = more stable) [M]	unfolding free energy [kcal/mol]
F57S R82A	2	4.6	10.1
